Here are results for one substance from US20100029702A1, “Method For Identification of Compound Having Anti-Anxiety Effect” (priority 2006, published 2010).

The target in this assay is T1, ph01207 gene product (Homo sapiens, UniProt O60241, DEL308-362).
T1 construct: oocytes expressing the gene (ph01207 cDNA clones); expressed in transfected cells; host or cells: Xenopus laevis oocytes
T1 sequence (O60241 with tags, fused parts or gaps DEL308-362): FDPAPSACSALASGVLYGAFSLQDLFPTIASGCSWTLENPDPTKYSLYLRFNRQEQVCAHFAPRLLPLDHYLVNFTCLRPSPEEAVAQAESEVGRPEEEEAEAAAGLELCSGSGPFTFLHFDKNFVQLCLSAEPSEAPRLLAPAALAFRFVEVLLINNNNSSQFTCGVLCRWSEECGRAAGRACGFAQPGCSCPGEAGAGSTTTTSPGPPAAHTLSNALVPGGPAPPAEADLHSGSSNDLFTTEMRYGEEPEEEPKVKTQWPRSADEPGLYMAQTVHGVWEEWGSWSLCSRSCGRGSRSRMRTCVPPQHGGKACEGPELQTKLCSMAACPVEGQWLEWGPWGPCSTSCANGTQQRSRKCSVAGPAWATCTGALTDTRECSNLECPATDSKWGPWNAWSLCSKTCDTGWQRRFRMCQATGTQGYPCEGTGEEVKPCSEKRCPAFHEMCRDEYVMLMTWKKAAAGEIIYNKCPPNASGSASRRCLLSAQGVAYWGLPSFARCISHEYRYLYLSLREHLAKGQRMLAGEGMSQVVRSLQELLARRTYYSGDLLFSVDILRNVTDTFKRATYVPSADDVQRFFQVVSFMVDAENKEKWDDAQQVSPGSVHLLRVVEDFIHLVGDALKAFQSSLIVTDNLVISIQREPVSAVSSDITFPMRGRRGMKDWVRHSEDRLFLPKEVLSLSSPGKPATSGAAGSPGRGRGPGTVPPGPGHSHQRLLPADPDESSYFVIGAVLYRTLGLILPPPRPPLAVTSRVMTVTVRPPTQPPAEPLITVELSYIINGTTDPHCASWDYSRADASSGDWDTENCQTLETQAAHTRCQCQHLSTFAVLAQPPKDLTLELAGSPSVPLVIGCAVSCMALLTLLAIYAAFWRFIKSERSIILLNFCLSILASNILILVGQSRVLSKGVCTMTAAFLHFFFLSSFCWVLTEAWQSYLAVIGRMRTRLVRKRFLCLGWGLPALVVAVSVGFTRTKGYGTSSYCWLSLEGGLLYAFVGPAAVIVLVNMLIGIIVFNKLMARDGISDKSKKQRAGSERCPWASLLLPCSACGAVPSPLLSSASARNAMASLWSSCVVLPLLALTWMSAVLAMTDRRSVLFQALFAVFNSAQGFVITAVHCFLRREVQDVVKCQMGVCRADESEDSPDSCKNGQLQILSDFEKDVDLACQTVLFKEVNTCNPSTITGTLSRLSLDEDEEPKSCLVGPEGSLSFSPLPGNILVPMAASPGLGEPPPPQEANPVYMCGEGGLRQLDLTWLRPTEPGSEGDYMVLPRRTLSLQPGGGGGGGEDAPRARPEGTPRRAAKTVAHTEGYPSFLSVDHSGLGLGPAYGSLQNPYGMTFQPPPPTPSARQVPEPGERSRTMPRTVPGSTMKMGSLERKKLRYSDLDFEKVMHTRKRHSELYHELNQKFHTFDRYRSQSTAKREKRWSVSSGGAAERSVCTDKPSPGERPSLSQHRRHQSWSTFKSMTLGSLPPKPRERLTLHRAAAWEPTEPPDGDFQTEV
Kind of assay: Intracellular calcium concentration change assay with ph01207#3F8-17 strain: inhibition of the response to CCK-8S. The assay is classed as cell-based. Conditions: 10 nM CCK-8S, wells with buffer. The text has this:
A compound that inhibits a response of the ph01207 gene product to a ligand was identified by an intracellular calcium concentration change assay system using the ph01207-expressing cell strain.
The ph01207-expressing cell strain was constructed as follows. First, a ph01207-expressing vector not containing an epitope tag was constructed by recombination between a ph01207 cDNA clone identified in Example 1 and pcDNA3.1 (Invitrogen) with Asp718I (Boehringer) and NotI (TAKARA). The ph01207-expressing vector was transfected into the CHO-K1 strain, a host cell, using Lipofectamine 2000 (Invitrogen), and the cells were screened for stably-expressing strains by a selective medium containing G418. Expression of the gene introduced into the cell was detected by the FCM analysis using an anti-ph01207 antibody.
As a result, a plurality of cell strains stably expressing ph01207 were obtained. A compound was identified using the ph01207#3F8-17 strain, a clone of these strains.
As a ligand, CCK-8S (Peptide Institute, Inc.) was used. […]
Compounds were specifically identified as follows. […] After reaction, CCK-8S (Peptide Institute, Inc.) and a compound was added, and changes over time in the fluorescence intensity in each well were measured for 80 sec. […] Changes over time in the fluorescence intensity were measured using the FLEX station (Molecular Device).
A general note: A change in cytosolic calcium serves as a functional read-out for many receptors and channels.

Take “cholecystokinin octapeptide sulfated form [CCK-8S]”: the “Change in fluorescence intensity (intracellular Ca2+) after addition of CCK-8S” value is recorded as “increased”.
